Data taken from PMC5366330, “The Activity of a Hexameric M17 Metallo-Aminopeptidase Is Associated With Survival of Mycobacterium tuberculosis” (Frontiers in Microbiology, 2017).

Tests used:
[1] = molecular target: T1, MtLAP (leucine aminopeptidase of M. tuberculosis, Rv2213) (Mycobacterium tuberculosis, UniProt P9WHT3); test: biochemical
T1 construct: gene pepA

[2] = system: Cc1cc(=O)oc2cc(NC(=O)[C@@H](N)CC(C)C)ccc12; test: purified protein; conditions: divalent metal (Ni2+, […] NiSO4 in the assay)
[3] = system: CSCC[C@H](N)C(=O)Nc1ccc2c(C)cc(=O)oc2c1; test: purified protein; conditions: divalent metal (Ni2+, […] NiSO4 in the assay)
[4] = system: Cc1cc(=O)oc2cc(NC(=O)[C@@H]3CCCN3)ccc12; test: purified protein; conditions: divalent metal (Ni2+, […] NiSO4 in the assay)
AUC + SEC = molecular target: the molecule itself; test: AUC + SEC

Q: With CC(C)C[C@H](NC(=O)[C@@H](O)[C@H](N)Cc1ccccc1)C(=O)O [bestatin] as the molecule, how does the IC50 [1] read?
A: 53.8 nM

Q: What does the source list for “MtLAP (leucine aminopeptidase of M. tuberculosis, Rv2213) (Mycobacterium tuberculosis H37Rv)”?
A: Km [2]: 69.4 ± 3.6 µM; Km [3]: 61.8 ± 4.4 µM; Km [4]: 344.8 ± 49.2 µM

B1: leucine aminopeptidase of M. tuberculosis (MtLAP) (enzyme)
chain: MTTEPGYLSPSVAVATSMPKRGVGAAVLIVPVVSTGEEDRPGAVVASAEPFLRADTVAEIEAGLRALDATGASDQVHRLAVPSLPVGSVLTVGLGKPRREWPADTIRCAAGVAARALNSSEAVITTLAELPGDGICSATVEGLILGSYRFSAFRSDKTAPKDAGLRKITVLCCAKDAKKRALHGAAVATAVATARDLVNTPPSHLFPAEFAKRAKTLSESVGLDVEVIDEKALKKAGYGGVIGVGQGSSRPPRLVRLIHRGSRLAKNPQKAKKVALVGKGITFDTGGISIKPAASMHHMTSDMGGAAAVIATVTLAARLRLPIDVIATVPMAENMPSATAQRPGDVLTQYGGTTVEVLNTDAEGRLILADAIVRACEDKPDYLIETSTLTGAQTVALGTRIPGVMGSDEFRDRVAAISQRVGENGWPMPLPDDLKDDLKSTVADLANVSGQRFAGMLVAGVFLREFVAESVDWAHIDVAGPAYNTGSAWGYTPKGATGVPTRTMFAVLEDIAKNG
notes: also called M. tuberculosis LAP; Rv2213
Q: How did the “stoichiometry N” value (AUC + SEC) turn out when B1 was run?
A: 6
